# Tests used:
# [1] = target: CwlDΔ25-His6 (soluble domain of C. difficile CwlD amidase, His-tagged) (Clostridioides difficile); assay: SEC; Superdex 200 Increase 10/300 GL; 200 mM NaCl, 10 mM Tris HCl pH 7.5, 5% glycerol, 1 mM DTT; fractions on SDS-PAGE with Coomassie; complexes also run after 1 h at 4°C with fivefold excess ZnCl2 or 1 mM EDTA
# [2] = target: FLAG-tagged CwlD_(E199A) (Clostridioides difficile); assay: co-IP; lysates of C. difficile sporulating for 22 h; FLAG IP buffer (50 mM Tris pH 7.5, 150 mM NaCl) with 0.1% NP-40; anti-FLAG magnetic resin, 1 h at room temperature; eluted with FLAG peptide; GerS detected by anti-GerS blot
# [3] = target: FLAG-tagged CwlD_(H49A) (Clostridioides difficile); assay: as above
# [4] = target: FLAG-tagged CwlD_(R169D) (Clostridioides difficile); assay: as above
# [5] = target: CwlDΔ25-His6 (soluble domain of C. difficile CwlD amidase, His-tagged) (Clostridioides difficile); assay: pull-down; co-affinity purification: His-tagged CwlD and untagged GerS co-produced in E. coli, captured on Ni-NTA agarose (500 mM NaCl, Tris pH 7.5, 15 mM imidazole, 10% glycerol, 2 mM ß-mercaptoethanol), eluted with 200 mM imidazole, Coomassie staining
# [6] = target: GerSΔ22 (soluble domain of C. difficile GerS lipoprotein, untagged) (Clostridioides difficile); assay: crystal structure; SEC-purified CwlD:GerS complex; hanging drop at 18°C, 50 mM BisTris pH 7.5, PEG 3350 12–18%, 5% glycerol, 0.25 M ammonium nitrate; 2.4 Å
# [7] = target: CwlD_(E199A)-His6 (Clostridioides difficile); assay: SEC; Superdex 200 Increase 10/300 GL; 200 mM NaCl, 10 mM Tris HCl pH 7.5, 5% glycerol, 1 mM DTT; fractions on SDS-PAGE with Coomassie; complexes also run after 1 h at 4°C with fivefold excess ZnCl2 or 1 mM EDTA
# [8] = target: CwlD_(E65A)-His6 (Clostridioides difficile); assay: as above
# [9] = target: CwlD_(H49A)-His6 (Clostridioides difficile); assay: as above
# [10] = target: CwlD_(R169D)-His6 (Clostridioides difficile); assay: pull-down; co-affinity purification: His-tagged CwlD and untagged GerS co-produced in E. coli, captured on Ni-NTA agarose (500 mM NaCl, Tris pH 7.5, 15 mM imidazole, 10% glycerol, 2 mM ß-mercaptoethanol), eluted with 200 mM imidazole, Coomassie staining
# [11] = target: CwlD_(R169Q)-His6 (Clostridioides difficile); assay: as above
# [12] = target: GerSΔ22-His6 (Clostridioides difficile); assay: dynamic light scattering; DynaPro Protein Solutions DLS instrument; purified GerS, CwlD and SEC-purified CwlD:GerS complex
# [13] = target: GerSΔ22-His6 (Clostridioides difficile); assay: SEC; Superdex 200 Increase 10/300 GL; 200 mM NaCl, 10 mM Tris HCl pH 7.5, 5% glycerol, 1 mM DTT; fractions on SDS-PAGE with Coomassie; complexes also run after 1 h at 4°C with fivefold excess ZnCl2 or 1 mM EDTA
substance,measurement,setting,value
"CwlDΔ25-His6 (soluble domain of C. difficile CwlD amidase, His-tagged) (domain or fragment)",stoichiometry N,[1],2
"GerS, cleaved form (GerS-c), untagged, in sporulating C. difficile (natural protein)",decrease of GerS pulled down relative to wild-type FLAG-tagged CwlD,[2],40%
same,fold reduction of GerS pulled down relative to wild-type FLAG-tagged CwlD,[3],5 fold
same,fold reduction of GerS pulled down relative to wild-type FLAG-tagged CwlD,[4],5 fold
"GerS_(D106A), untagged (domain or fragment)",reduction of GerS co-purification relative to the wild-type complex,[5],90%
"GerS_(D106R), untagged (domain or fragment)",reduction of GerS co-purification relative to the wild-type complex,[5],90%
"GerSΔ22 (soluble domain of C. difficile GerS lipoprotein, untagged) (domain or fragment)",stoichiometry N,[6],2
same,stoichiometry N,[7],1
same,stoichiometry N,[8],1
same,stoichiometry N,[9],1
same,stoichiometry N,[1],1
same,reduction of GerS co-purification relative to the wild-type complex,[10],90%
same,reduction of GerS co-purification relative to the wild-type complex,[11],90%
GerSΔ22-His6 (domain or fragment),stoichiometry N,[12],2
same,stoichiometry N,[13],2
